Laboratory results taken from the DeepSol protein solubility set.

Experiment: soluble on expression in E. coli; label from the status in PepcDB or PDB records

Q: With “MSFTTKVKEELIHLSTGDNNELAAIIKLSGSLGLAHQSLHLSITTENAKIARYIYSLIEDAYVIVPEIRYHQKTNLRKNRVYTVYVEQGVETILADLKLADSFFGLETGIEPQVLSDDNAGRSYLKGAFLAAGSIRDPESGKYQLEIYSVYLDHAQDLAQLMQKFMLDAKTIEHKSGAVTYLQKAEDIMDFLIIIGAMSCKEDFEAIKLLREARNDINRANNAETANIAKTISASMKTINNIIKIMDTIGLESLPIELQQVAQLRVKHPDYSIQQVADALEFPITKSGVNHRLRKINKIADDL” as the sequence, how does the “soluble on expression in E. coli” value read?
A: not soluble

Q: Which “soluble on expression in E. coli” value does the source give for “MPWKCYRDYNLESQILKYRTTADVIMKSMYKLEIESLKRELAEYRRGNNGSHSDCKYYDEEAREEVS” here?
A: not soluble

Q: With “MKLVFYGAGNMAQAIFTGIINSNNLNANDIYLTNKSNEQALKSFAEKLGVNYSYDDEALLKDADYVFLGTKPHDFENLANRIREHITNDNRFISIMAGLSIDYIRQQLNTNNPLARIMPNTNAQVGHSVTGISFSNNFDPKSKNEVDELINAFGSVIEVSEEHLHQVTAITGSGPAFLYHVFEQYVKAGTELGLERNQVEESIRNLIIGTSKMIERSDLSMSQLRKNITSKGGTTQAGLDALSQYDIVSMFEDCLGAAVNRSMELSHKEDELEHHHHHH” as the sequence, how does the “soluble on expression in E. coli” value read?
A: soluble

Q: With “MGSDKIHHHHHHMKIAVVGLGNIGFNLFSYINKKYPNSVVGVDIDAGRVNDLRSQGYRVTTDYRALTGIDIWLLAPSTGDQGENLFAALGEMIICPGALISIESTLPPGTMELVRKYLEGKGYRCGQDVYLIHVPHRVMFGVDETVCDTPRVMGAFTQACRDKGRQFYEPLVPQLVEVEDVRIAELSKVVENVKRYVDVAFAQELYQYCKDQGMDFAELRKAVNSKSNVELLGTDWGIGGECLPKDMRFLRKVCPSPLLEGAAIADQEYRDRILQQVGTHQNVLIKGLSYKAGVKDLKHSRGVDLVRALEEAGNTVWVVDPLFTPEELEAAGFKTVEKFDEADLQGWIVLEREKALK” as the sequence, how does the “soluble on expression in E. coli” value read?
A: not soluble

Q: Which “soluble on expression in E. coli” value does the source give for “LRGFIIGRFQPFHKGHLEVIKKIAEEVDEIIIGIGSAQKSHTLENPFTAGERILMITQSLKDYDLTYYPIPIKDIEFNSIWVSYVESLTPPFDIVYSGNPLVRVLFEERGYEVKRPEMFNRKEYSGTEIRRRMLNGEKWEHLVPKAVVDVIKEIKGVERLRKLAQTDK” here?
A: soluble

Q: For “LTLRAGREQNIPMNLSDSWAARRPVTARVSAAEAVLADLRDAITSGELSVGERLPSEASLAARHGVSRSVIREALRSCHALGLTETKSGLGTFVVSDSIARDLDFGNYAANELVEARPHVEIPAAGWAAQRHTAEDLAALRGLVDQMRDEDDPLVWVSLDAQFHAFIARTSRNRVFESVIVDIREALTRQSETLNLVAGRQQKSNDEHDRIVEGIASGSYDKAARAMAEHLDAVRVALESVVGEAGPDRRQ”, which “soluble on expression in E. coli” value is on record?
A: not soluble

Q: Which “soluble on expression in E. coli” value does the source give for “MLQPPTLTPNANGEEFRGSVSTDRSSASPSNIDEIMEDDVNQKDEDEDLNLVDRVSKLETNFVFIQHQLSSIMNHLHAPQCKCTTCSKVNQPGAEEQKNDTSVLSQLFPNASDQQLKTLLDLSKMNKLPSQVVHKDQQNGSSFLPSANKTSENPKPIELKPLKLGQGYQMANGGGGGKIHTERLSEPARKQSRKVGFPPPVASYYQRKESSNPLVPPTPLSSIPNLITNSNAVSANTSTASPGPSSEGSGDDHLEAPNEVAHMHSSTVPATPTTPGANLFTQSMVDMLKLNAQNAAHSTGSPGFLRGRGRGRPKLIGDELDADLVDYMVSLKNSDPHGGHFTASQALHMARQYILERAPGLLEEHGGHVKLKLTWAMKLVSRIGERQREIELGLPAGTLSNMGRNLTNIPAGGNFMADMMAQNIFSQHMMMVNQQLEGGSPPASSSSTATTSTATKTVKQESKNGHQNEENLNVKQEASTMPEIINIKELNLPFLNNFLAELNDNNSGLIDGEIGAAGPSMAALFAPNA” here?
A: not soluble

Q: Which “soluble on expression in E. coli” value does the source give for “MKIYYEHDADLGFILGKKVAVLGFGSQGHAHALNLKDSGVDVRVGLRKGSRSWEKAEAAGLRVLPVAEAVREADVVMVLLPDEKQAQVYREEVEPNLKEGGALAFAHGFNVHFGQIKPRKDLDVWMVAPKGPGHLVRSEYQKGSGVPALVAVHQDASGSAFPTALAYAKAIGAARAGVIATTFKDETETDLFGEQAVLCGGLTRLIRAGFETLVEAGYPPEMAYFETVHEVKLIVDLIYEAGLKGMRYSISNTAEYGDYTRGDLAVPLEETKRRMREILRQIQSGEFAREWMLENQVGSPVLEANRKRWAAHPIEEVGSRLRAMMPFLKARVMEEVG” here?
A: soluble

Q: Which “soluble on expression in E. coli” value does the source give for “MIRILLSNDDGISAPGIQTLASALRGFAQVQIVAPDRNRSGASNALTLDSALRITTLSNGDIAVQQGTPTDCVYLGVNALMRPRPDIVVSGINAGPNLGDDVIYSGTVAAAMEGRHLGYPALAVSLNGHQHYDTAAAVTCRLLRALQRKPLRTGKILNINVPDLPLAEIKGIRVTRCGSRHPAEQVFCQQDPRGQDLYWIGPPGEKYDAGPDTDFAAVEQGYVSITPLQVDLTAYMAQEVVESWLANTEVDGEW” here?
A: not soluble

Q: With “SNAMIKRPIHMSHDFLAEVLDDESIVVDATMGNGNDTAFLAGLSKKVYAFDVQEQALGKTSQRLSDLGIENTELILDGHENLDHYVREPIRAAIFNLGYLPSADKSVITKPHTTLEAIEKILDRLEVGGRLAIMIYYGHDGGDMEKDAVLEYVIGLDQRVFTAMLYQPLNQINTPPFLVMLEKLQ” as the sequence, how does the “soluble on expression in E. coli” value read?
A: soluble

Q: Which “soluble on expression in E. coli” value does the source give for “MAIRLYKLAVALGVFIVSAPAFSHGHHSHGKPLTEVEQKAANGVFDDANVQNRTLSDWDGVWQSVYPLLQSGKLDPVFQKKADADKTKTFAEIKDYYHKGYATDIEMIGIEDGIVEFHRNNETTSCKYDYDGYKILTYKSGKKGVRYLFECKDPESKAPKYIQFSDHIIAPRKSSHFHIFMGNDSQQSLLNEMENWPTYYPYQLSSEEVVEEMMSH” here?
A: soluble

Q: Which “soluble on expression in E. coli” value does the source give for “ENYLNVKKIENEKNLQISEMSLQYDYYMKQSNDMENIRKISHDIKNHLEALRGNVDYQQKQEYIDGIESKLDIYQSYYKTGNAFLNNLLHAKRLEALEKKIEFKVFADFTPFKRVKNEDLCVIVSNTIDNALRECQLMKADNPKIECLVQLKARKIKGFLSIICENSLRESQAEALRGNLVMETSKEDKKNHGFGVKNIKRVVREYGGEVSFNVVDDMFSVSILIPIEV” here?
A: not soluble

Q: Which “soluble on expression in E. coli” value does the source give for “MTAEHSWRLCLMALAFEDQLAGLDLGKVLRMCVVHDLGEAIHGDIPAVEQAAHPDKGEQERADLLQLTRHLDAPLRDRLLALWDEYERGESAEALAVKALDKLETL” here?
A: soluble

Q: With “VVMHPGFGAAALTGATGAAAAAAAAPTPQASPLGGRGTGASAEPATSAHSHGGGGGFGNVVSGTPMETTVSLPPQVSSHAGGRGASGSTDSSAEASTDHKRARTNNPGAGGARAAQAAALPSLDAVTSQQAAAAAGMAPAAGTLGAVPPAYPAVAVAPAAEVNGAMPYVDALTEQLRAVRLLQPTPPSSASSAPVRASAAAMADVTENVAVKAKGKKKGAAAAAAAQPPPPPLLPPAPRTEMDRRAALSGAAGAFMAACDEAVRELLLAMNFSDHDAEAIITGAAPPQLEHAASGVVSLVLRLKSSVLSHYIKHLNNAAARSQAAAASTAAVDGNAEDAADKHGAKATSAAKAPPAAGGGAGDAADQQLSTGEACLVQLQLYGGVGDALLQLLRSKLRGSACQLWALAHIVHPHPSRSEKESLAAYTGKSTKQVTDWFTNWRARHW” as the sequence, how does the “soluble on expression in E. coli” value read?
A: not soluble

Q: With “SLLGMNFAMHTTIDTKLVLFGPSENLVTEDDDARNMASKLIENGIITTACINYVKDKPAESKLREMRIVLEPVGKIISDYIKDGYVPVTF” as the sequence, how does the “soluble on expression in E. coli” value read?
A: not soluble

Q: With “MAHHHHHHMGTTASTDSADSPFSVRSVDSSGGGGWRQEDPERFRKYMHLKSQADQWRQRHGHTPGATRGELTKNLIEEVYEEDFESVDHVQSMRLPPMVLKEMKDAVANEAERRCAETEKVMARCLQDKMWTSWKCQKERDALYQCVADRKEDNELLMAYRWKYNLGTFHGELIGRNNMMRRIWKEHFPDRDLPHPWVKDA” as the sequence, how does the “soluble on expression in E. coli” value read?
A: not soluble

Q: For “SGTPPGLQTDCEALLSRFQETDSVRFEDFTELWRNMKFGTIFCGRMRNLEKNMFTKEALALAWRYFLPPYTFQIRVGALYLLYGLYNTQLCQPKQKIRVALKDWDEVLKFQQDLVNAQHFDAAYIFRKLRLDRAFHFTAMPKLLSYRMKKKIHRAEVTEEFKDPSDRVMKLITSDVLEEMLNVHDHYQNMKHVISVDKSKPDKALSLIKDDFFDNIKNIVLEHQQWHKDRKNPSLKSKTNDGEEKMEGNSQETERCERAESLAKIKSKAFSVVIQASKSRRHRQVKLDSSDSDSASGQGQVKATRKKEKKERLKPAGRKMSLRNKGNVQNIHKEDKPLSLSMPVITEEEENESLSGTEFTASKKRRKH”, which “soluble on expression in E. coli” value is on record?
A: soluble

Q: With “MGSDKIHHHHHHMKILLYLEAEQFLSHSGIGRAMKHQQRALDLMGIDWTKNPEDDYDILHLNTYGFSSWKMLKKAKKAGKKVIFHGHSTKEDFQNSFIGSNIAAPFFKQYLMHFYRAADLVITPTDYSASLLRSYGIKCPILPISNGIDLTKYSRSEAKEQAFREYFSLKSDQKVVVTAALYFKRKGIDDFIKVAERMPDVTFIWFGYQNLWTIPGWIRRIVKKNHPKNVLFPGYIKGDIFEGAMSSADAFFFPSREETEGIVVLEALASHQKTVVRDIPVYHGWLDSTCVSMATDVEGFVNQLQDVLDGKVDKTKEAYQVAESRTIEKVAQQLADAYQQTLEL” as the sequence, how does the “soluble on expression in E. coli” value read?
A: not soluble

Q: Which “soluble on expression in E. coli” value does the source give for “MGSDKIHHHHHHMSNISEIVVELFKEASIYLPDDVKSKLKHAEEVECGACKDTLQAIELNNKIAETKQIPLCQDTGVPVIFLKIGTGISSERIIEIIKEIESGVKRATAEVPLRPNVVNPITRENLGTNTGMGAPFINFEFSENLNNEIEISVFPKGAGSENMSALKMLTPSEGLMGIKKFILETVANAGGKPCPPIVLGIGIGGTADISLKLAKKALLRDIGNRNPEKTIENLEKELLDSINQLGIGTMGLGGKITALDVFIEVNGCHTASLPVGICIQCWADRKAKRKIKL” here?
A: not soluble

Q: Which “soluble on expression in E. coli” value does the source give for “MGSDKIHHHHHHMSNQTLKKISELDVFCLMVFKVIFQTGHANIAAKQLNVSAPKISRCLNMLRATFDDELFYRRQLGLKPTPMAEFLYEPVCQFCEAVLKIEQSISEKSSELASERLRVAVTPSIMASLSLAFSRSNARDAFSQLQFVIWGDDSADQIHNGELDMGVTFDACNEHPLSVEALGCLSGVCLAANEEHAIWSQSEPLTLETICRHPFLCLDGKGFNDKIDPLEVFARQNGADIDSIERVSSRDEWYSHLLTMNSVAFLPCSEAEICGALPGIRVVRLSDEEVGRLHGESMSPQYLLLENPAEYRRYSLEQRELIIQLIKQLLVKC” here?
A: not soluble

Q: Which “soluble on expression in E. coli” value does the source give for “MGSDKIHHHHHHMSQQLTFADSEFSSKRRQTRKEIFLSRMENLLPWSQLLDVIEPFYPKVGNGRRPYPLETMFRIHCMQQWYSLSDEATEDALYEIASMRQFALLSLDKAIPDRTTIMNFRHLLEKHKLTRKLFKTVNQWLSDSGVMMTQGTLVDATIIEAPSSTKNKNNERDPDMHQTKKGNQWHFGMKAYIGVDAKSGLTHTLVTTAANEHDLNQLDNLLHGEEEFVSGDAGYQGAQKREELKDTNVEWLIAERPGKIRALKKRPRKNKTIINIEYLKASIRAKVEHPFRIIKCQFGFIKARYKGLMKNDSQLAMLFTLANLFTVDQMLRRQPRSV” here?
A: not soluble

Q: Which “soluble on expression in E. coli” value does the source give for “MGSDKIHHHHHHMRILLVGHYPPHKGGVARHVKQLKECLEKRHEVYVLTYGTVAVEEENVYSVKVPNIFGIRGTSFALLASKKIVKLHEKYNFDLVHAHYVGTTSFAGVLAKRKTGVPLVITAHGSDLEFMSRLPLGGYFVKTSIMEADYVIAVSHYLAKKALELGASRISVIPNWTELSGESERKYILFLGRVASYKGIEDFIELAKRFPGEEFVVAGEGPLLKKLRAKSPPNVKFLGYVPAEDVLKKAKVLVLPSKREGFGLVVIEANSFKVPVLGRNVGGIRELIRFSKNGYLFEDIEDAITYLKTLLVPKTNVKLGSIGKRISKGHSQEKMCERVEEIYREVIS” here?
A: not soluble
